Laboratory results taken from publication PMC9263355 (2022).

Molecular target: 4-1BB (Homo sapiens, UniProt Q07011)
Assay: fluorescence anisotropy

4-1BB, sequence (Q07011 24-255): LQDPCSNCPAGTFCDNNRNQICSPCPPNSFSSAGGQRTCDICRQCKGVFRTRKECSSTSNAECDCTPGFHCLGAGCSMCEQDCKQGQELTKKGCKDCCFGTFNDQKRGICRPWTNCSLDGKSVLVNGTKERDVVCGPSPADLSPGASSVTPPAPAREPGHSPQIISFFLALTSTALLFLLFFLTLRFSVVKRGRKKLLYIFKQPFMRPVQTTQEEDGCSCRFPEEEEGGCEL

B1: Galectin-9N N-terminal CRD (protein)
chain: MAFSGSQAPYLSPAVPFSGTIQGGLQDGLQITVNGTVLSSSGTRFAVNFQTGFSGNDIAFHFNPRFEDGGYVVCNTRQNGSWGPEERKTHMPFQKGMPFDLCFLVQSSDFKVMVNGILFVQYFHRVPFHRVDTISVNGSVQLSYISFQ
Kd: ~1.5 µM
